These results are taken from US20240092899A1 (CHIA TAI TIANQING PHARMACEUTICAL GROUP, published 2024).

What is called Kd is the constant that tells how readily two partners part at equilibrium. A high value points to lower affinity. As a reminder, the koff is the rate constant with which the complex falls apart. A higher koff goes with fast dissociation. One may read the kon as a measure of how fast the partners come together. Read a low kon as slow association.

Assay [1] deals with heavy chain HZ14A9VH-CH1-IgG1. Briefly: co-expression in ExpiCHO-S, protein A purification, non-reducing SDS-PAGE. How it is done:
(§1) After transfection, the cells were placed in ExpiCHO™ medium (manufacturer: Thermo, Cat No. A2910001), and expressed and cultured at 32° C. with 5% CO₂ at 130 rpm. On day 10, the cell supernatant was collected, and the target protein was purified by protein A affinity chromatography using AKTA Pure 25 L system from GE and MabSelect SuRe LX packing. After elution, the concentration of the eluted protein was measured using NanoDrop Lite (Thermo Fisher Scientific). The purity of the eluted protein was measured by SEC-HPLC, and the protein purity of the sample used for the test was not lower than 80%. A total amount of […] of protein was taken from each sample and subjected to non-reducing SDS-PAGE electrophoresis. The protein was stained with Coomassie brilliant blue, and the electrophoresis results were observed.
(§2) After the co-expression and purification of HZ5G11VH-Cα-IgG1 and HZ14A9VL-IgK as well as HZ14A9VH-Cα-IgG1 and HZ5G11VL-IgK, various products were generated. […] The results above indicate that there is some interaction between the CL domain and MHCICα, thereby promoting the production of light and heavy-mispaired products.

In assay [2] the target is heavy chain HZ14A9VH-Cα-IgG1. The description is as above. As to the method: as §1, §2
Assay [3] has as its target heavy chain HZ5G11VH-CH1-IgG1. As to the kind of experiment: co-expression in ExpiCHO-S, protein A purification, non-reducing SDS-PAGE, Coomassie stain. How it is done:
as §1, §2

For assay [4], the target named is heavy chain HZ14A9VH-Cα-IgG1. The assay is described as above.
The target of assay [5] is T1, heavy chain HZ5G11VH-Cα-IgG1.
T1 construct: HZ5G11 heavy chain whose CH1 is replaced by MHCICα
Briefly: co-expression in ExpiCHO-S, protein A purification, non-reducing SDS-PAGE. As to the method: as §1, §2

For assay [6], the target named is heavy chain HZ5G11VH-CH1-IgG1. Described as above. As to the method:
as §1, §2

For assay [7], the target named is heavy chain HZ14A9VH-CH1-IgG1. Briefly: co-expression in ExpiCHO-S, protein A purification, non-reducing SDS-PAGE, Coomassie stain. How it is done:
as §1, §2

Assay [8] addresses T2, human CD47 (human, UniProt Q08722 19-139).
T2 construct: Bought antigen; also called ACROBiosystems Cat. No. CD7-H5227
As to the kind of experiment: SPR (Biacore 8K), antibody captured on chip, antigen injected. The source says:
(§3) The affinity properties of the HZ5G11 monoclonal antibody, the HZ14A9 monoclonal antibody, MHL147-3322-IgG1-wt and MHL147-3322-IgG1-F118A bispecific antibodies were characterized by Biacore. The HZ5G11 monoclonal antibody, the HZ14A9 monoclonal antibody, MHL147-3322-IgG1-wt and MHL147-3322-IgG1-F118A bispecific antibodies were respectively immobilized onto a sensing chip by a capture method, and a human PDL1 (manufacturer: ACROBiosystems, Cat. No. PD1-H52H3) or human CD47 (manufacturer: ACROBiosystems, Cat. No. CD7-H5227) protein antigen solution with a certain concentration gradient was injected into the sample. Association/dissociation curves were acquired in real time by Biacore 8K Control Software 3.0, and data analysis was performed by Biacore Insight Evaluation Software 3.0. An association rate constant Ka, a dissociation rate constant Kd, and an equilibrium constant KD were obtained.

Assay [9] deals with T3, human PDL1 (human, UniProt Q9NZQ7 19-238).
T3 construct: Bought antigen; also called ACROBiosystems Cat. No. PD1-H52H3
T3 sequence (Q9NZQ7 19-238 limits assumed): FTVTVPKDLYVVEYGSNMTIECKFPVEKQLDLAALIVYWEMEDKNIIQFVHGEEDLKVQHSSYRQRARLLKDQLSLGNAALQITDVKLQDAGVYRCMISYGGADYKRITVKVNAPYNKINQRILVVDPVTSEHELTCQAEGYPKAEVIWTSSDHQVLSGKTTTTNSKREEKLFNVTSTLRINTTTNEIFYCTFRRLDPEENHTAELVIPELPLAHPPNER
Described as above.
Text: as §3

Numbering of substitutions follows the chain as printed. Numbers in names are those of the source.

T2 sequence (Q08722 19-139 limits assumed): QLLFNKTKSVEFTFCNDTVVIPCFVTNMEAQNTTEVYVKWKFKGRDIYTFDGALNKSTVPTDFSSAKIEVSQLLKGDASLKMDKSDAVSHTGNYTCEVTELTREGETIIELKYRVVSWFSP

B1: light chain HZ5G11VL-IgK (other)
light: DIQMTQSPSSLSASVGDRVTITCKASQSVSNDVAWYQQKPGKAPKLLIYYAANRYTGVPDRFSGSGYGTDFTFTISSLQPEDIATYFCQQDYTSPYTFGQGTKLEIKRTVAAPSVFIFPPSDEQLKSGTASVVCLLNNFYPREAKVQWKVDNALQSGNSQESVTEQDSKDSTYSLSSTLTLSKADYEKHKVYACEVTHQGLSSPVTKSFNRGEC
On to B1, for which the binding result in [1], in assay [2] and in assay [3] was “binds” throughout.

B2: HZ5G11VL-IgK-F118I (other)
light chain: B1 light with F118I
notes: Variant of m12; also called light chain HZ5G11VL-IgK with F118I (EU numbering) in the CL domain
As to B2, the binding result in assay [4] is listed as “binds”.

B3: HZ5G11VL-IgK-F116A (other)
light chain: B1 light with F116A
notes: Variant of m12; also called light chain HZ5G11VL-IgK with F116A (EU numbering) in the CL domain
Regarding B3, in assay [4], the binding result is reported as “binds”.

B4: HZ5G11VL-IgK-S114A (other)
light chain: B1 light with S114A
notes: Variant of m12; also called light chain HZ5G11VL-IgK with S114A (EU numbering) in the CL domain
Turning to B4, the binding result in assay [4] is on record as “binds”.

B5: light chain HZ14A9VL-IgK (other)
light: DIQMTQSPSSLSASVGDRVTITCKASENVVSYVSWYQQKPGKAPKLLIYGASNRYTGVPSRFIGSGSSTDFTLTISSLQPEDFATYYCGQSYSYPLTFGQGTKLEIKRTVAAPSVFIFPPSDEQLKSGTASVVCLLNNFYPREAKVQWKVDNALQSGNSQESVTEQDSKDSTYSLSSTLTLSKADYEKHKVYACEVTHQGLSSPVTKSFNRGEC
As for B5, the binding result in assay [5], in assay [6] and in assay [7] was “binds” throughout.

B6: MHL147-3322-IgG1-wt (bispecific antibody)
heavy 1: not shown
light 1: DIQMTQSPSSLSASVGDRVTITCKASQSVSNDVAWYQQKPGKAPKLLIYYAANRYTGVPDRFSGSGYGTDFTFTISSLQPEDIATYFCQQDYTSPYTFGQGTKLEIKIQRTPKIQVYSCHPAENGKSNFLNCYVSGFHPSDIEVDLLKNGERIEKVEHSDLSFSKDWSFYLLYYTRFTPTEKDEYACRVNHVTLSQPKIVKWDRGP
heavy 2: not shown
light 2: B5 light
notes: IgG1 bispecific with LALA (L234A+L235A) and KIH mutations; The PD-L1 arm is modified with MHC-I elements; the CD47 arm is a Fab with wild-type kappa CL; also called anti-PDL1*CD47 bispecific antibody
B6: in assay [8], the equilibrium dissociation constant (Kd) is 3.31 nM, the koff came to 0.0124 s⁻¹ and the kon worked out at 3.75e+06 M⁻¹ s⁻¹. In assay [9], this molecule displayed a dissociation constant (Kd) of 0.304 nM, a koff of 0.000562 s⁻¹ and an on-rate (kon) of 1.85e+06 M⁻¹ s⁻¹.

B7: MHL147-3322-IgG1-F118A (bispecific antibody)
heavy 1: not shown
light 1: B6 light 1
heavy 2: not shown
light 2: B5 light with F118A
notes: IgG1 bispecific with LALA (L234A+L235A) and KIH mutations; The PD-L1 arm is modified with MHC-I elements; the CD47 arm is a Fab whose kappa CL carries F118A (EU numbering); also called MHL147-3322-F118A; anti-PDL1*CD47 bispecific antibody
In assay [8], B7 yielded a Kd of 5.26 nM, a koff of 0.0249 s⁻¹ and an association rate constant (kon) of 4.74e+06 M⁻¹ s⁻¹. In assay [9], this molecule came in with a Kd of 0.384 nM, a koff of 0.000606 s⁻¹ and a kon of 1.58e+06 M⁻¹ s⁻¹.

B8: light chain HZ14A9VL-Cβ (other)
light: DIQMTQSPSSLSASVGDRVTITCKASENVVSYVSWYQQKPGKAPKLLIYGASNRYTGVPSRFIGSGSSTDFTLTISSLQPEDFATYYCGQSYSYPLTFGQGTKLEIKIQRTPKIQVYSCHPAENGKSNFLNCYVSGFHPSDIEVDLLKNGERIEKVEHSDLSFSKDWSFYLLYYTRFTPTEKDEYACRVNHVTLSQPKIVKWDRGP
For B8, in assay [6], the binding result is given as “no binding”.

B9: HZ14A9 monoclonal antibody (antibody, V domains shown)
VH: QVQLVQSGAEVKKPGASVKVSCKVSGFNIEDDYIEWVRQAPGQGLEWMGRIDPANDKTKYAQKFQGRVTMTGDTSTNTVYMELSSLRSEDTAVYYCARPGLRRYYSMDYWGQGTLVTVSS
VL: DIQMTQSPSSLSASVGDRVTITCKASENVVSYVSWYQQKPGKAPKLLIYGASNRYTGVPSRFIGSGSSTDFTLTISSLQPEDFATYYCGQSYSYPLTFGQGTKLEIKR
notes: Humanized IgG1 kappa antibody from a mouse hybridoma; also called monoclonal IgG1K antibody HZ14A9 targeting human CD47
On to B9, for which, in assay [8], binding was put at a Kd of 5.85 nM, the off-rate (koff) came out at 0.0143 s⁻¹ and the association rate constant (kon) worked out at 2.45e+06 M⁻¹ s⁻¹.

B10: HZ5G11 monoclonal antibody (antibody, V domains shown)
VH: QITLKESGPTLVKPTQTLTLTCTVSGFSLSTYGVHWIRQPPGKALEWLGVIWRGVTTDYNAAFMSRLTITKDNSKNQVVLTMNNMDPVDTATYYCARLGFYAMDYWGQGTLVTVSS
VL: DIQMTQSPSSLSASVGDRVTITCKASQSVSNDVAWYQQKPGKAPKLLIYYAANRYTGVPDRFSGSGYGTDFTFTISSLQPEDIATYFCQQDYTSPYTFGQGTKLEIKR
notes: Humanized IgG1 kappa antibody from a mouse hybridoma; also called monoclonal IgG1K antibody HZ5G11 targeting human PD-L1
For the molecule B10, in assay [9], binding was characterised by a dissociation constant (Kd) of 0.282 nM, the koff amounted to 0.000427 s⁻¹ and the kon came to 1.51e+06 M⁻¹ s⁻¹.

B11: light chain HZ5G11VL-Cβ (other)
light: B6 light 1
notes: HZ5G11 light chain whose CL is replaced by MHCICβ
In the case of B11, in assay [1], the binding result is “no binding”.
